From paper PMC12442378, “SmsB-SmsC machinery in Thermococcus kodakarensis functions as an archaeal scaffold mediating Fe-S cluster assembly” (Applied and Environmental Microbiology, 2025)
Values belong to the binder of their own block, whether it stands above or below them.

B2: Tk-SmsB (TK0730 protein) with a 6x His tag at its N-terminus (natural protein, Thermococcus kodakarensis, UniProt Q5JG67 1-446, looked up)
chain: MTETITMADAKAIIENQIEELARRNKEPEWMTKIRYKALEAFERAPHKDPVISEEQLLHFIAKPEVKGLPDHIESLDDLPPEMKALLDRLGISEVEQKYIAGLAVQTDTGVIYNQFLQDWAKKGLIVLPTEEAVRKYPDIVKQHFLKLFRADESKLTAYHTAVWNGGIFLYVKEGLKVPFPLHLFFLIQESALAQAPHIIIIAERNTEFHLIEGCTAPILLKHSLHLDMTEAYFHEGAKAQLTVLQNWPEYVHTRPMTRAKVGRGARFINTTVTLGSGKSNIGDPHYWVEEGGHVELNGIILGQKDFYVDLGGRMFLQGPGASGINASKAVIMDESTVVTRGIIEADAPKTKGHISCDALLMSDKAVMETYPGLISRVDDAELSHEAAIGKIREEELFYLMSRGLDEEKATQLIVKGFLDPMLKDIPMEFLVEIRKIIELAVSGGM
notes: SmsB (SufB homolog) of Thermococcus kodakarensis, locus TK0730; coding region amplified from genomic DNA of strain KU216; theoretical monomer mass 50.8 kDa including the His tag; Homodimer by gel filtration.); not shown: His6, N-terminal, kept

Columns and labels:
[1] = target: B2; test: cell-based or functional assay
[2] = target: B2; test: SEC; Superdex 200 Increase 10/300 GL; 50 mM HEPES pH 7.5, 0.15 M NaCl; Tk-SmsB 40 uM alone, Tk-SmsC 72 uM alone, or mixture of 40 uM each; peak fraction analysed by SDS-PAGE and band densitometry; settings: both partners purified
[3] = target: the molecule itself; test: as above
[4] = target: the molecule itself; test: SEC; gel filtration of Tk-CSD alone and of its mixtures with Tk-SmsB, Tk-SmsC or both, 30 uM of each protein; fractions analysed by SDS-PAGE

kcat/Km of ATP hydrolysis, Tk-SmsB2C2 (Tk-SmsC alone 4.4 × 10^2) [1]: 4600 M⁻¹ s⁻¹
density ratio of the Tk-SmsB band to the Tk-SmsC band (SDS-PAGE of peak Pm) [2]: 1.13
stoichiometry N [2]: 1 Tk-SmsC per Tk-SmsB (printed as 2:2)
B1: Tk-SmsC (TK0731 protein), recombinant (enzyme, Thermococcus kodakarensis, UniProt Q5JG66 1-246, looked up)
chain: MLKVENLHVSVEDKEILRGVDLEVNPGEFHVIMGPNGSGKSTLALTIAGHPKYRVTDGKILFEGEDITELGPDERAKRGILLAFQVPPEVEGVKVIEFLQQVLVELKGMDPAEAYDLVVEKAKELWFKEEDLHRYVNVGFSGGERKRLELLQALLIEPKLLILDEPDSGVDVDSLSIISRKIEELHQRGTAILLITHYGRILGHLDREKLTVHVMKDGRIVKTGSGELVDQIDREGFARIFEEVGA
notes: SmsC (SufC homolog, ABC-type ATPase) of Thermococcus kodakarensis, locus TK0731; coding region amplified from genomic DNA of strain KU216; theoretical mass 27.5 kDa; Cloned NdeI-BamHI into pET-21a(+); Monomer by gel filtration; source: E. coli BL21-CodonPlus(DE3)-RIL (pET0731), purified (heat treatment, anion exchange, gel filtration)

Binder: B2
stoichiometry N [3]: 2

B3: Tk-CSD (cysteine desulfurase of T. kodakarensis, TK1990 protein) (enzyme, Thermococcus kodakarensis, UniProt Q5JIJ0 1-399, looked up)
chain: MKIPDDIRKDIPLTSEVIYFDNTATSLTPKPVIEAMDEYYLKYRANVHRGVHRLSQIATHKYEESRKVVADFINAKFEEIVFTKNTSESLNLVALGLEHIFEKGDKIVTTPYEHHSDLLPWQRLAKKKGLRLEFIEGDLEGNLDLADAEKKIKGAKLVAVQHVSNALGVIHEVEELGKMAKEEGAIFVVDAAQSAGHMEVDVKKLYADFLGFSGHKGPMGPTGIGVLYINSEFFDVFEPPLIGGGTIEDVDLDSYKLAEPPERFEAGTPNIGGAIGLAAGIRYIERIGIEKIEKQEHKLVKRTTEGLDELEVPWYGPRNLKKHAGVVSFNVPPLHPHDVAAILDEHNIMVRSGHHCALPAMKKLGVEGTVRASFHVYNSVEEVETFLSVMENLIRGLRG
notes: cysteine desulfurase (SufS homolog) of Thermococcus kodakarensis, locus TK1990; coding region amplified from genomic DNA of strain KU216; theoretical monomer mass 44.4 kDa; Cloned NheI-EcoRI into pET-21a(+); Homodimer by gel filtration; source: E. coli BL21-CodonPlus(DE3)-RIL (pET1990), purified (heat treatment, anion exchange, gel filtration)
stoichiometry N [4]: 2
